Reference: US6905817B1, “Ret-independent signaling pathway for GDNF” (Licestia Ltd., priority 1998, dated 2005)
“Also recorded” adds a separate entry of the source. Values belong to the molecule of their own block, whether it stands above or below them.

What was measured:
[1] = molecular target: T1, GFRα1 of the Ret-negative human SHEP neuroblastoma cell line (human) (UniProt P56159); assay: anti-GFRα1 immunoprecipitate from the Triton X-100 insoluble fraction of SHEP cells, Western blot with pan-Src antibodies; lane 1 min of 100 ng/ml GDNF
T1 sequence (GPI anchor, looked up): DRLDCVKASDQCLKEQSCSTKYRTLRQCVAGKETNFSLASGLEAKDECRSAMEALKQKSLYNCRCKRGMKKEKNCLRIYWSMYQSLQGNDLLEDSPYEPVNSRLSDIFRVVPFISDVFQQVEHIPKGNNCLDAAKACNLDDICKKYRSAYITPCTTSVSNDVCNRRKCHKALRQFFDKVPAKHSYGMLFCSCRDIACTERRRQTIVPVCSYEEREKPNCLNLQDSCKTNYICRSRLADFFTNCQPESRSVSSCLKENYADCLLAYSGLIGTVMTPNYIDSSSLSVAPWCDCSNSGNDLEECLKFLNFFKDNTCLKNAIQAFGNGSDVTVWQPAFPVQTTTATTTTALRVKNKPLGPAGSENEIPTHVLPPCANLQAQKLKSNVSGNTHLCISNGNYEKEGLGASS

[2] = molecular target: T1, GFRα1 of the Ret-negative human SHEP neuroblastoma cell line (human); assay: anti-GFRα1 immunoprecipitate from the Triton X-100 insoluble fraction of SHEP cells, Western blot with pan-Src antibodies; lane 7 min of 100 ng/ml GDNF
[3] = molecular target: T1, GFRα1 of the Ret-negative human SHEP neuroblastoma cell line (human); assay: anti-GFRα1 immunoprecipitate from the Triton X-100 insoluble fraction of SHEP cells, Western blot with pan-Src antibodies; lane 30 sec of 100 ng/ml GDNF
[4] = molecular target: T1, GFRα1 of the Ret-negative human SHEP neuroblastoma cell line (human); assay: anti-GFRα1 immunoprecipitate from the Triton X-100 insoluble fraction of SHEP cells, Western blot with pan-Src antibodies; lane 0 min GDNF (reference lane)
[5] = test system: wild type mouse DRG neurons; assay: GDNF-evoked [Ca^2+]i changes, confocal microscopy with Calcium Green-1AM, wild type DRG neurons; format: cell-based; conditions: for change in [Ca^2+]i: 100 ng/ml, heat-inactivated at 98° C. for 15 min
Description: (§1) DRG from embryonic day 18 (E18) mice were treated with trypsin (Worthington), non-neuronal cells removed by preplating, and about 95% pure neurons cultured on poly-ornithine-laminin-coated glass coverslips in Ham's F14 medium (Imperial Laboratories) with serum substitute containing NGF, BDNF and NT-3 (all from PeproTech, 2 ng/ml if each) for at least 1 day before measurement. Neurotrophins were extensively washed out before GDNF application. GDNF was from PeproTech and donated by Cephalon, Inc. Ret-deficient mice (Schuchardt et al., 1994) were identified from heterozygote matings by the absence of kidneys and PCR-based genotyping. GFRα2-deficient mice were obtained from homozygote matings (Rossi et al., 1999).
(§2) [Ca^2+]i was measured using a Bio-Rad MRC-1024 confocal microscope equipped with an argon-krypton laser. The cells were loaded with 10 μM Calcium Green-1AM (Molecular Probes), a membrane permeable Ca^2+ dye, by 30 min incubation in serum free cell-culture media at 37 ° C. and 5 % CO2. After loading, the neurons were kept at room temperature in Dulbecco's PBS solution contained 20 mM HEPES (pH=7.4) for at least 20 min prior to the experiments. All compounds were applied to the bath by a peristaltic pump. 6 kD Heparin (Sigma) and Alexa 568 nm fluorescent dye (Molecular Probes) were loaded into the cells using Molecular Probes' pinocytotic influx loading reagent basically according to the manufacturer instructions. […] Cell injection was performed using Eppendorf microinjection system. The average intensity of fluorescence in the predefined ROI (Region Of Interest) was measured on-line using TimeCourse software from BioRad. The calibration of fluorescence traces was performed in vitro using Fmax and Fmin values obtained with the calcium calibration buffer kit (Molecular Probes). Because the calibration solutions may not reflect the intracellular environment, the experimental data are presented as delta [Ca^2+]i calculated using Kd=190 nM for Calcium Green-1.

Ret^−/− DRG neurons = assay: GDNF-evoked [Ca^2+]i changes, confocal microscopy, Ret^−/− DRG neurons; format: cell-based, mouse; conditions: for GDNF-evoked [Ca^2+]i elevation in heparin injected neurons: 6kD heparin injected, versus solvent/saline injected control neurons
Description: as §1, §2

GFRα2^−/− DRG neurons = assay: GDNF-evoked [Ca^2+]i changes, confocal microscopy, GFRα2^−/− DRG neurons; format: cell-based, mouse; conditions: pre-treatment 10 μM U-73122
Description: as §1, §2
Transgenic GFRα2 knock-out mice were produced in our laboratory. […]

[6] = molecular target: T1, GFRα1 of the Ret-negative human SHEP neuroblastoma cell line (human)
[7] = molecular target: T1, GFRα1 of the Ret-negative human SHEP neuroblastoma cell line (human); assay: cell-based or functional assay
[8] = molecular target: T2, GPI-anchored GDNF family receptor α1 (GFRα1) of mouse E18 DRG neurons (mouse) (UniProt P97785); assay: cell-based or functional assay
T2 sequence (GPI anchor, looked up): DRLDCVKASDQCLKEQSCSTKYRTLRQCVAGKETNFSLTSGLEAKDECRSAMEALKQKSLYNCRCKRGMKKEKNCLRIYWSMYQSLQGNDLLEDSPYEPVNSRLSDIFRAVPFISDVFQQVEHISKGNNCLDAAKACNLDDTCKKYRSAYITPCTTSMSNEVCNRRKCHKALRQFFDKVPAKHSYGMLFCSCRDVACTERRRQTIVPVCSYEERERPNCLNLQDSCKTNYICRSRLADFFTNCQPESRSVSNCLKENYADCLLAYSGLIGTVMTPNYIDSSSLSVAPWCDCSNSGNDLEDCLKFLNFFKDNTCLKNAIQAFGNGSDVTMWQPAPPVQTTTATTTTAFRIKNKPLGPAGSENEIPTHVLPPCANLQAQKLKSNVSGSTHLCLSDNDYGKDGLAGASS

fold (pan-Src band in the anti-GFRα1 immunoprecipitate, relative to 0 min) [1]: 1.5 fold
fold (pan-Src band in the anti-GFRα1 immunoprecipitate, relative to 0 min) [2]: 1.2 fold
fold (pan-Src band in the anti-GFRα1 immunoprecipitate, relative to 0 min) [3]: 1.5 fold
fold (pan-Src band in the anti-GFRα1 immunoprecipitate, relative to 0 min) [4]: 1 fold
Molecule: GFRα1-coupled Src-type kinase of SHEP cells, co-migrating with p62Yes (from UniProt P07947 2-543) (enzyme)

Molecule: phosphatidylinositol-specific phospholipase C [PI-PLC]
GDNF-evoked [Ca^2+]i elevation after pre-treatment ([5]; pre-treatment 1U/ml PI-PLC, GDNF 100 ng/ml): eliminates GDNF-evoked [Ca^2+]i elevation; also recorded: None of the pre-treated neurons responded
GDNF-evoked [Ca^2+]i elevation after pre-treatment (Ret^−/− DRG neurons; pre-treatment PI-PLC 1 U/ml for 1 hr at 37° C.): abolished the effect of GDNF; also recorded: did not affect [Ca^2+]i

Molecule: C/C=C(/C)C(=O)O[C@H]1C(C)=C2[C@H]([C@@H]1OC(=O)CCCCCCC)[C@@](C)(OC(C)=O)C[C@H](OC(=O)CCC)[C@@]1(O)[C@H]2OC(=O)[C@@]1(C)O [thapsigargin]
change in [Ca^2+]i on application of thapsigargin ([5]; 5 μM, applied at the end of the experiments): profound elevation in [Ca^2+]i
GDNF-evoked [Ca^2+]i elevation after pre-treatment ([5]; pre-treatment 5 μM thapsigargin): abolished the effect of GDNF; also recorded: resulted in the abolishing of the effect of GDNF
change in [Ca^2+]i on thapsigargin treatment (Ret^−/− DRG neurons; 5 μM, end of experiments, PI-PLC pre-treated neurons): [Ca^2+]i was transiently increased

Molecule: heparin
GDNF-evoked [Ca^2+]i elevation in heparin injected neurons (Ret^−/− DRG neurons): did not evoke an increase in [Ca^2+]i
GDNF-evoked [Ca^2+]i elevation in heparin injected neurons (Ret^−/− DRG neurons; listed as Heparin): did not significantly respond to GDNF application
[Ca^2+]i response of neurons loaded by pinocytosis with heparin (Ret^−/− DRG neurons; heparin with Alexa dye, 100 nM GDNF or 10 μM ATP): did not respond either to 100 nM GDNF or to 10 μM ATP

Molecule: COc1ccc2c(c1)CC[C@@H]1[C@@H]2CC[C@]2(C)[C@@H](NCCCCCCN3C(=O)C=CC3=O)CC[C@@H]12 [U-73122]
GDNF-evoked [Ca^2+]i elevation after pre-treatment ([5]; pre-treatment with U-73122): resulted in abolishing of the effect of GDNF; also recorded: resulted in the abolishing of the effect of GDNF
GDNF-evoked release of Ca^2+ from internal stores after pre-treatment (GFRα2^−/− DRG neurons): inhibited release of Ca^2+ from the internal stores
GDNF-evoked long-lasting [Ca^2+]i elevation / Ca^2+ release after pre-treatment (Ret^−/− DRG neurons; pre-treatment U-73122 (10 μM)): completely abolished; also recorded: inhibited release of Ca^2+ from the internal stores

in vitro kinase activity co-precipitated with anti-GFRα1 antibodies from the Triton X-100 insoluble fraction of SHEP cells, fold relative to untreated cells; lane 0 min (reference lane) [6]: 1 fold
in vitro kinase activity co-precipitated with anti-GFRα1 antibodies from the Triton X-100 insoluble fraction of SHEP cells, fold relative to untreated cells; lane 30 sec of 100 ng/ml GDNF [6]: 12 fold
in vitro kinase activity co-precipitated with anti-GFRα1 antibodies from the Triton X-100 insoluble fraction of SHEP cells, fold relative to untreated cells; lane 1 min of 100 ng/ml GDNF [6]: 10 fold
in vitro kinase activity co-precipitated with anti-GFRα1 antibodies from the Triton X-100 insoluble fraction of SHEP cells, fold relative to untreated cells; lane 7 min of 100 ng/ml GDNF [6]: 7 fold
Src-type kinase activity in co-precipitates with anti-GFRα1 antibodies from Triton X-100 insoluble fractions of SHEP cells [7]: 12 fold
[Ca^2+]i elevation in Ret^-/- DRG neurons (confocal microscopy, Calcium Green-1) (% of the neurons) [8]: 60 to 70
B1: Glial cell line-derived neurotrophic factor (GDNF) (ligand, UniProt P39905 78-211, looked up, species assumed)
Glial cell line-derived neurotrophic factor: SPDKQMAVLPRRERNRQAAAANPENSRGKGRRGQRGKNRGCVLTAIHLNVTDLGLGYETKEELIFRYCSGSCDAAETTYDKILKNLSRNRRLVSDKVGQACCRPIAFDDDLSFLDDNLVYHILRKHSAKRCGCI

B2: Heat-inactivated GDNF: GDNF heat-inactivated at 98° C. for 15 min, used as specificity control (protein, UniProt P39905 78-211, looked up)
Glial cell line-derived …: SPDKQMAVLPRRERNRQAAAANPENSRGKGRRGQRGKNRGCVLTAIHLNVTDLGLGYETKEELIFRYCSGSCDAAETTYDKILKNLSRNRRLVSDKVGQACCRPIAFDDDLSFLDDNLVYHILRKHSAKRCGCI
modifications: heat-inactivated
change in [Ca^2+]i [5]: did not evoke any changes of basal [Ca^2+]i
change in [Ca^2+]i ([5]; heat-inactivated): did not evoke changes in [Ca^2+]i
change in [Ca^2+]i (Ret^−/− DRG neurons; prolonged application, heat-inactivated, 100 ng/ml): did not respond with [Ca^2+]i elevations
